Results published in US20230151434A1, “REAWAKENING OF DORMANT TUMOR CELLS BY MODIFIED LIPIDS DERIVED FROM STRESS ACTIVATED NEUTROPHILS” (The Wistar Institute of Anatomy and Biology, priority 2020, published 2023).

Experiments:
KPr^p53A cells = experiment: In vivo stress induction, NOD/SCID mice injected with KPr^p53A cells and PMN; set-up: species or system mouse
Description: A total of 2.5×10^4 KPr^p53A cells were intravenously injected to NOD/SCID mice. Beginning 3 weeks after injection, mice were imaged weekly. Luciferin (PerkinElmer) was intraperitoneally injected in mice before imaging according to the manufacturer's instruction. Mice were imaged with IVIS Spectrum In Vivo Imaging System (IVIS, PerkinElmer) to detect luminescent signal coming from growing cancer cells. Mice were put under anesthesia in the induction chamber with isoflurane vaporizer set to 2.5%, at a flow rate of ˜1.5 liters/min. Mice were then transferred in the IVIS imaging stage nose cone inside the IVIS manifold (IVIS manifold nose cones flow set to ˜0.25 LPM). Animals were monitored by video during imaging. Once the images of luciferase/luciferin activity were acquired, the anesthesia was turned off and the animals were returned to their cages. […] Analysis and quantification were performed with IVIS imaging system Living Image Software 4.7.4 (PerkinElmer). […] When signal was detected, mice were sacrificed, and bioluminescent images of the harvested lung were taken. […] If no bioluminescence was detected in lungs after 80 days from last PMN injection, experiments were terminated, and lung tissue were collected. […] Bioluminescence was not detected in any LL2^CisA-injected mice at 3 weeks after injection. Mice were treated with PMN or PMN-MDSC and analyzed as described above. […]

PMN [1] = experiment: S100A8/A9 release by PMN measured by ELISA; format: cell-based, mouse; conditions: PMN treated with NE with or without ICI-118,551
Procedure: PMN or PMN-MDSC were isolated from spleen of tumor-free mice or LLC tumor-bearing mice, respectively. A total of 5×10^5 LLC cells were injected into the right flank of mice, and spleens were harvested when tumors reached 200 mm^2. Spleens were mechanically dissociated. Red blood cells were lysed with ACK buffer cells. Splenocytes were stained with mouse biotin-conjugated Ly6G antibody (Miltenyi Biotec) followed by biotin microbeads. Ly6G+ cells were purified by magnetic separation with MACS column for magnetic cell isolation, according to the manufacturer's instructions (Miltenyi Biotec).
One hundred microliters of mouse peripheral blood was collected from facial vein. NE was measured by a mouse NE ELISA Kit (Novus Biologicals). S100A8/A9 was measured by Mouse S100A8/S100A9 Heterodimer DuoSet ELISA (R&D Systems). S100A8/A9 concentrations in human serum samples were determined by using a double-sandwich ELISA system as previously described (64), which is different from commercial ELISA kits. Human NE was measured using an ELISA kit (Abnova).

PMN and PMN-MDSC = experiment: NET detection; format: cell-based, mouse
Procedure: PMN were cultured for 8 hours in 24-well flat-bottom plates in RPMI 1640+10% FBS. PMN were then fixed with 4% paraformaldehyde (Electron Microscopy Sciences) followed by staining with SYTOX Green Nucleic Acid Stain (SYTOX) at a final concentration of 250 nM. A Nikon TE300 inverted microscope equipped with a motorized XY stage was used to image NETs by acquiring 25 random locations per well. The z-stacks per location were then combined into an extended depth focused image. The total NET area was calculated by segmenting each image using a defined threshold pixel intensity setting. The spot detection tool in NIS-Elements Advanced Research (Nikon) was used to count the number of cells per field. The sum of the total NET area in the 25 random fields of view was divided by the total number of cells in the 25 fields of view to obtain NET area (in […]) per cell.

PMN [2] = experiment: LC-ESI-MS analysis of lipids in PMN; format: cell-based, mouse
Procedure: Lipids were extracted by the Folch procedure with slight modifications, under nitrogen atmosphere, at all steps. Briefly, methanol (1 ml) was added to the cell suspension and mixed. After that, chloroform (2 ml) was added, and the mixture was vortexed every 15 min for 1 hour at 0° C. Next, 0.1 M NaCl (0.5 ml) was added to the samples and vortexed, and the chloroform layer was separated by centrifugation (1500 g, 5 min). The lower (organic) layer was collected. The aqueous layer was re-extracted with 1 ml of chloroform/methanol (2:1, v/v). The chloroform (lower) layers were combined, evaporated under a stream of nitrogen, and used for lipidomics analysis. MS analysis of phospholipids was performed on a Fusion Lumos trihybrid-quadrupoleorbitrap-ion trap mass spectrometer (Thermo Fisher Scientific). Phospholipids were separated on a normal phase column [Luna 3 μm Silica (2) 100 A, 150×1.0 mm (Phenomenex)] at a flow rate of 0.065 ml/min on a Thermo Ultimate 3000 HPLC system. The column was maintained at 35° C. The analysis was performed using gradient solvents (A and B) containing 10 mM ammonium formate. Solvent A contained propanol/hexane/water (285:215:5, v/v/v) and solvent B contained propanol/hexane/water (285:215:40, v/v/v). All solvents were LC/MS grade. The column was eluted for 0 to 3 min with a linear gradient from 10 to 37% B and then held for 3 to 15 min at 37% B. The column was eluted for 15 to 23 min with a linear gradient of 37 to 100% B, and then held for 23 to 75 min at 100% B. The column was eluted again for 75 to 76 min with a linear gradient from 100 to 10% B followed by equilibration from 76 to 90 min at 10% B. Analysis was performed in negative ion mode at a resolution of 120,000 for the full MS scan in a data-dependent mode. The scan range for MS analysis was 400 to 1800 m/z (mass/charge ratio) with a maximum injection time of 100 ms using 1 microscan. An isolation window of 1.2 Da was set for the MS and MS2 scans. Capillary spray voltage was set at 3.5 kV, and capillary temperature was 320° C.

| Molecule | growth of KPr^p53A cells in lung and liver of stressed mice injected with PMN (KPr^p53A cells; 1 mg/kg i.p. daily during stress induction) | survival of stressed tumor-bearing mice (KPr^p53A cells; humane end-points, n=10 per group) | NE-mediated secretion of S100A8/A9 by PMN (PMN [1]) | NET formation by PMN and PMN-MDSC (PMN and PMN-MDSC) | content of oxidatively truncated PC species in PMN (PMN [2]; PMN incubation) | accumulation of oxidized, oxidatively truncated, and lyso-PE in PMN (PMN [2]; overnight treatment) | content of LPE containing saturated and monoenic acyl chains in PMN (PMN [2]; overnight treatment) |
| --- | --- | --- | --- | --- | --- | --- | --- |
| Cc1ccc(OCC(O)C(C)NC(C)C)c2c1CCC2 (stereo not shown) [ICI-118,551] | abrogated this effect | markedly improved survival | abrogated the NE-mediated secretion of S100A8/A9 by PMN |  |  |  |  |
| S100A8/A9: recombinant S100A8/A9, heterocomplex of two S100 calcium binding proteins (calprotectin) (protein, UniProt P27005 2-89; P31725 2-113, looked up) Protein S100-A8: PSELEKALSNLIDVYHNYSNIQGNHHALYKNDFKKMVTTECPQFVQNINIENLFRELDINSDNAINFEEFLAMVIKVGVASHKDSHKE Protein S100-A9: ANKAPSQMERSITTIIDTFHQYSRKEGHPDTLSKKEFRQMVEAQLATFMKKEKRNEALINDIMEDLDTNQDNQLSFEECMMLMAKLIFACHEKLHENNPRGHGHSHGKGCGK |  |  |  | did not cause substantial up-regulation of NETs | No significant changes in the content of oxidatively truncated PC species | caused marked accumulation of oxidized, oxidatively truncated, and lyso-PE in PMN | did not change the content of LPE containing saturated and monoenic acyl chains in PMN |
